Measured values as given in patent US12529705 (dated 2026).

Molecular target: T1, full-length protein LRP8 expressed in N2A cells transfected with a cDNA coding for LRP8 (Origene, Cat. No. … (human, UniProt Q14114 33-963))
T1 construct: Tested as a lysate of transfected N2A cells in SDS-PAGE and Western blot, not on intact cells; also called LRP8-FL; APOER2
T1 sequence: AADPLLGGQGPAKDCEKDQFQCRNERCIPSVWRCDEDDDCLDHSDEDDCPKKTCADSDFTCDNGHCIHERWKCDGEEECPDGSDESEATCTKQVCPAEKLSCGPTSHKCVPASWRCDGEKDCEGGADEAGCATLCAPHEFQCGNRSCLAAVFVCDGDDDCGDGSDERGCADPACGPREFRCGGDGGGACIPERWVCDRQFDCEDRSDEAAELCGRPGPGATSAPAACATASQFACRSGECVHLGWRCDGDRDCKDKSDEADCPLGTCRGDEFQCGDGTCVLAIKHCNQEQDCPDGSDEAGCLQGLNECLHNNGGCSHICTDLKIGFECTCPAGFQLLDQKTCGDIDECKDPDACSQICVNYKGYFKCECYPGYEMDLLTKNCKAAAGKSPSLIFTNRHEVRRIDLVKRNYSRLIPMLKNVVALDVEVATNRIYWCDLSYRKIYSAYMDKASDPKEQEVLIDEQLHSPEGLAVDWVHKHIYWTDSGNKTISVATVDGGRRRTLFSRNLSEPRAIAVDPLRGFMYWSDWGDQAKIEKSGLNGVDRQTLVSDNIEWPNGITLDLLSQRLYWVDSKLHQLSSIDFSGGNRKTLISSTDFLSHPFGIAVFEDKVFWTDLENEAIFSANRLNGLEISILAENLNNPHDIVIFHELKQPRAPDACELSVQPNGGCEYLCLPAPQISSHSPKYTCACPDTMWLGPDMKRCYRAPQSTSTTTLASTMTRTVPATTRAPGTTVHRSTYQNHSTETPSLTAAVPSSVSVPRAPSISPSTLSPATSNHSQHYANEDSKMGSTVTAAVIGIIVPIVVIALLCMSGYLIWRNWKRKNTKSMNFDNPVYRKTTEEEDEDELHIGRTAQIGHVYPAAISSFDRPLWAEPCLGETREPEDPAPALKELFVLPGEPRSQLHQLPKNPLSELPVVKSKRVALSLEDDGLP
Assay: Western blot, lysate of LRP8-transfected N2A cells, antibody at 1 µg/ml
Excerpt: The two lines of hybridomas described above develop antibodies that recognize both the entire protein LRP8 and its different C-terminal fragments. […] I.D. 5 and 9 with a cysteine at the C-terminus are able to produce antibodies that recognize both the protein LRP8 as such, and the fragments of 18-25 kDa, which are substrates of γ-secretase and different shorter fragments of 8-16 kDa, collectively defined as LICDs-derived intracellular domain LRP8, similar to the AICDs fragments derived from the cleavage of AβPP by γ-secretase or by other proteases such as those previously specified. The polyclonal antibodies (rabbit) GS1 and GS2 were made using SEQ I.D. 5 and SEQ I.D. 9, respectively. […] In lane 8 there is a negative control whereas in lane 9 the hybridization was performed using a commercial antibody vs LRP8 (Sigma Aldrich Cat No. SAB1306331) as a positive control. All the antibodies were used at the final concentration of 1 µg/ml. It is therefore clear that both the polyclonal antibodies and the antibodies of clones of hybridomas according to the present invention are able to identify not only the full-length protein LRP8 and the fragments from 18-25 kDa, but also advantageously the fragments 8-16 kDa, as indicated by the boxes in FIG. 3. […]

binding result: binds
B1: monoclonal antibody of hybridoma 25F7F1 (antibody, V domains shown)
VH: EVQLQQSGPVLVKPGASVKMSCKASGYKFTDHFMNWVKKNHGKSLEWIGVINPYNGGTRLNPKFKGKATLTVDKSSSTVYMELNSLTFEDSAVYYCARETIDLAWFAYWGQGTLVTVSA
VL: DVLMTQTPPSLPVTLGDQASISCRSSQSIVYSNGKTYLEWYLQKPGQSPKLLMYKVSNRFSGVPDRFSGSGSGTDFTLKISSVEAEDLGIYYCFQGSHVPLTFGAGTKLELK
notes: Mouse (BALB/c) hybridoma monoclonal; also called antibody produced by 25F7F1 mouse hybridomas
